The target in assay [1] is Fluos-msR4M-LS (fluorescein-labelled ECL1[97–110] and ECL2[182–196] joined only by a disulfide bridge, no synthetic linker) (human), P61073. The assay is described as follows: other fluorescence titration; Fluos-labelled CXCR4 ectodomain peptide at 5 nM titrated with unlabelled MIF, MIF(10xAla), CXCL12 or MIF peptide fragments; 10 mM sodium phosphate, pH 7.4, 1% HFIP; emission at 522 nm; apparent KD, 1/1 binding model. Particulars: remark: other sources report otherwise.

Assay [2] concerns the target Fluos-msR4M-LS (human), P61073. Description: other fluorescence titration; 5 nM Fluos-labeled ectodomain peptide titrated with unlabeled MIF, MIF peptide or CXCL12; 10 mM sodium phosphate, pH 7.4, 1% HFIP; emission at 522 nm; apparent KD, 1/1 binding model; one constant for each of three curves. Particulars: remark: other sources report otherwise.

Where “and” joins values, the source holds several entries; their conditions need not be identical. Equal values may be shown once.

B1: macrophage migration-inhibitory factor (MIF), recombinant human, unlabelled, P14174 1-115 (natural protein)
chain: MPMFIVNTNVPRASVPDGFLSELTQQLAQATGKPPQYIAVHVVPDQLMAFGGSSEPCALCSLHSIGKIGGAQNRSYSKLLCGLLAERLRISPDRVYINYYDMNAANVGWNNSTFA
modifications: here or on the partner: disulfide bridge from Cys-109 to Cys-186 of the ECL2 chain; C-terminal amide; Fluos (fluorescein) label, chain and position not stated | disulfide bridge from Cys-186 to Cys-109 of the ECL1 chain; C-terminal amide
With B1, in assay [1], the Kd was determined as 6.9 nM.

B2: macrophage migration-inhibitory factor (MIF), recombinant human, P14174 1-115 (natural protein)
chain: MPMFIVNTNVPRASVPDGFLSELTQQLAQATGKPPQYIAVHVVPDQLMAFGGSSEPCALCSLHSIGKIGGAQNRSYSKLLCGLLAERLRISPDRVYINYYDMNAANVGWNNSTFA
modifications: here or on the partner: disulfide bridge from Cys-109 to Cys-186 of the ECL2 chain; C-terminal amide; Fluos label on the molecule (chain and position not stated) | disulfide bridge from Cys-186 to Cys-109 of the ECL1 chain; C-terminal amide
B2: the Kd in assay [2] is 9 nM and 5 nM.
